Reference: the Immune Epitope Database (IEDB)

What follows are sequences tested against HLA-A*02:01 (assay: IEDB peptide-MHC binding, purified MHC/competitive/radioactivity; ≥ and ≤ were set here for values at or beyond the usual limits of such assays). Settings: source organism: Hepacivirus hominis.

First: VLAGGVLAAV
Second: VLMTHFFSV
The IC50 of the first is 4.1-fold higher: 7.8 nM for the first, 1.9 nM for the second.

Compared with VLMTHFFSVL, VLMVDSFDPV is 3.5-fold lower in IC50: 114 nM for the first, 33 nM for the second. The second is the more potent here.

First: VLVGGVLAAL
Second: YMLVLAEALI
The IC50 of the first is 2.5-fold lower: 60 nM for the first, 152 nM for the second. The first is the more potent here.

Going from YSMAGNWAKV to YTLLGCWSFV, the IC50 rises from 175 nM to 435 nM (2.5-fold).

Same assay, conditions: source organism: Influenza A virus

Compared with VNNAVVMPA, WISFAISCFL is 7.5-fold higher in IC50: 468 nM for the first, 3510 nM for the second. The first is the more potent here.

First: WSYNAELLVA
Second: YNAELLVLL
The IC50 of the first is 2.4-fold lower: 256 nM for the first, 609 nM for the second. The first is the more potent here.

Same assay, conditions: source organism: Mammarenavirus guanaritoense

YCNYTRFWYI gave an IC50 of 322 nM.

Same assay, conditions: source organism: Mammarenavirus whitewaterense

With YCNYTKFWYV the IC50 was 75 nM.

Same assay, conditions: source organism: SARS-CoV1

VLWAHGFEL and VMCGGSLYV are within 1.5-fold of each other in IC50: 0.4 nM for the first, 0.39 nM for the second.

VMYASALVLL and VVFLHVTYV are within 1.5-fold of each other in IC50: 5.7 nM for the first, 3.9 nM for the second.

Compared with VVHGYFTEV, WLLWPVTLA is 2.2-fold lower in IC50: 15 nM for the first, 6.8 nM for the second.

WLMWFIISIV and WLVIGVAFL are within 1.5-fold of each other in IC50: 33 nM for the first, 35 nM for the second.

YASALVLLI and YIFFASFYYI are within 1.5-fold of each other in IC50: 13 nM for the first, 15 nM for the second.

Compared with YIWKSYVHI, YLMCLSPLM is 71-fold lower in IC50: 24 nM for the first, 0.34 nM for the second. The second is the more potent here.

YLMCLSPLMA and YLSSVLLAL are within 1.5-fold of each other in IC50: 0.65 nM for the first, 0.55 nM for the second.

Going from YMLFTKFFYL to YQCGHYTHI, the IC50 rises from 5.1 nM to 20 nM (3.9-fold).

Same assay, conditions: source organism: Vaccinia virus WR

Going from VITYCLVTHM to VLALYSPPL, the IC50 falls from 1320 nM to 0.19 nM (6900-fold). The second is the more potent here.

First: VLIAGIILLI
Second: VMYAFTTPL
The IC50 of the first is 100-fold higher: 89 nM for the first, 0.87 nM for the second. The second is the more potent here.

First: VMYAFTTPLI
Second: VQEFIFSAL
The IC50 of the first is 200-fold lower: 3.1 nM for the first, 614 nM for the second.

Going from VTFINDYANL to VTLFIDRGSI, the IC50 falls from 2480 nM to 1500 nM (1.7-fold). The second is the more potent here.

Going from VVISVIFYFI to WISDNTHIYL, the IC50 falls from 616 nM to 12 nM (51-fold).

Going from WLGAAITLVV to WLKDSAIMV, the IC50 rises from 123 nM to 326 nM (2.7-fold). The first is the more potent here.

Compared with WVMDTLNGI, WVMDTLNGIM is 15-fold higher in IC50: 12 nM for the first, 175 nM for the second. The first is the more potent here.

First: YAAEMVEYL
Second: YASLTTIGT
The IC50 of the first is 27-fold lower: 32 nM for the first, 868 nM for the second.

Going from YIAGLKIEEI to YIALCKVTV, the IC50 rises from 9.5 nM to 15 nM (1.6-fold).

Compared with YIILFILFFA, YIMRVMANNV is 4.8-fold lower in IC50: 234 nM for the first, 49 nM for the second. The second is the more potent here.

First: YIPPCQCTV
Second: YLGIFKNNDV
The IC50 of the first is 6.7-fold higher: 107 nM for the first, 16 nM for the second. The second is the more potent here.

Compared with YLGPRVCWL, YLLFNHFSV is 8.1-fold lower in IC50: 2.2 nM for the first, 0.27 nM for the second. The second is the more potent here.

Going from YLRGHTESI to YLRLYIILA, the IC50 rises from 3.7 nM to 190 nM (51-fold). The first is the more potent here.

YLYNKYSFKL and YLYTEYFLFL are within 1.5-fold of each other in IC50: 0.078 nM for the first, 0.069 nM for the second.

Going from YMSNLFDIPL to YMVTDKTAYI, the IC50 falls from 18 nM to 4.8 nM (3.8-fold). The second is the more potent here.

First: YQSFLFWFL
Second: YTISSESLV
The IC50 of the first is 1400-fold lower: 0.76 nM for the first, 1060 nM for the second. The first is the more potent here.

YTVEFDRDKV and YVGDTSMMVI are within 1.5-fold of each other in IC50: 934 nM for the first, 803 nM for the second.

Compared with YVHEGVSYEV, YVILKDPRI is 9.4-fold higher in IC50: 83 nM for the first, 778 nM for the second.

YVIPDELIDV and YVSPTEMVDV are within 1.5-fold of each other in IC50: 23 nM for the first, 21 nM for the second.

Sequence YVSVMNFIPI has an IC50 of 127 nM.

These sequences were tested against HLA-A*02:02 in the same assay as above. Settings: source organism: Hepacivirus hominis.

VLAGGVLAAV and VLMTHFFSV are within 1.5-fold of each other in IC50: 4.3 nM for the first, 4.9 nM for the second.

Going from VLMTHFFSVL to VLMVDSFDPV, the IC50 falls from 62 nM to 13 nM (4.8-fold). The second is the more potent here.

Compared with VLVGGVLAAL, YMLVLAEALI is 9.7-fold higher in IC50: 11 nM for the first, 107 nM for the second. The first is the more potent here.

First: YSMAGNWAKV
Second: YTLLGCWSFV
The IC50 of the first is 7.4-fold lower: 75 nM for the first, 555 nM for the second.

Same assay, conditions: source organism: Influenza A virus

VNNAVVMPA and WISFAISCFL are within 1.5-fold of each other in IC50: 231 nM for the first, 230 nM for the second.

First: WSYNAELLVA
Second: YNAELLVLL
The IC50 of the first is 2.1-fold higher: 242 nM for the first, 118 nM for the second.

Same assay, conditions: source organism: Mammarenavirus guanaritoense

YCNYTRFWYI gave an IC50 of 1060 nM.

Same assay, conditions: source organism: Mammarenavirus whitewaterense

For YCNYTKFWYV, the IC50 was 322 nM.

Same assay, conditions: source organism: SARS-CoV1

Compared with VLWAHGFEL, VMCGGSLYV is 3.9-fold lower in IC50: 2.4 nM for the first, 0.61 nM for the second. The second is the more potent here.

Compared with VMYASALVLL, VVFLHVTYV is 31-fold higher in IC50: 0.25 nM for the first, 7.8 nM for the second.

VVHGYFTEV and WLLWPVTLA are within 1.5-fold of each other in IC50: 17 nM for the first, 12 nM for the second.

Compared with WLMWFIISIV, WLVIGVAFL is 95-fold lower in IC50: 246 nM for the first, 2.6 nM for the second.

Going from YASALVLLI to YIFFASFYYI, the IC50 falls from 3.2 nM to 0.46 nM (7-fold). The second is the more potent here.

First: YIWKSYVHI
Second: YLMCLSPLM
The IC50 of the first is 610-fold higher: 86 nM for the first, 0.14 nM for the second. The second is the more potent here.

Going from YLMCLSPLMA to YLSSVLLAL, the IC50 falls from 0.24 nM to 0.14 nM (1.7-fold).

First: YMLFTKFFYL
Second: YQCGHYTHI
The IC50 of the first is 1.5-fold lower: 48 nM for the first, 72 nM for the second. The first is the more potent here.

Same assay, conditions: source organism: Vaccinia virus WR

Compared with VITYCLVTHM, VLALYSPPL is 2200-fold lower in IC50: 478 nM for the first, 0.22 nM for the second. The second is the more potent here.

Going from VLIAGIILLI to VMYAFTTPL, the IC50 falls from 8.8 nM to 0.57 nM (15-fold). The second is the more potent here.

Compared with VMYAFTTPLI, VQEFIFSAL is 580-fold higher in IC50: 0.72 nM for the first, 419 nM for the second.

First: VTFINDYANL
Second: VTLFIDRGSI
The IC50 of the first is 39-fold lower: 99 nM for the first, 3830 nM for the second.

First: VVISVIFYFI
Second: WISDNTHIYL
The IC50 of the first is 1700-fold higher: 239 nM for the first, 0.14 nM for the second. The second is the more potent here.

Going from WLGAAITLVV to WLKDSAIMV, the IC50 rises from 20 nM to 191 nM (9.6-fold). The first is the more potent here.

First: WVMDTLNGI
Second: WVMDTLNGIM
The IC50 of the first is 140-fold lower: 9.8 nM for the first, 1330 nM for the second. The first is the more potent here.

Going from YAAEMVEYL to YASLTTIGT, the IC50 rises from 0.52 nM to 409 nM (790-fold).

YIAGLKIEEI and YIALCKVTV are within 1.5-fold of each other in IC50: 8.9 nM for the first, 12 nM for the second.

Compared with YIILFILFFA, YIMRVMANNV is 11-fold lower in IC50: 263 nM for the first, 23 nM for the second.

Going from YIPPCQCTV to YLGIFKNNDV, the IC50 falls from 196 nM to 15 nM (13-fold).

YLGPRVCWL and YLLFNHFSV are within 1.5-fold of each other in IC50: 0.9 nM for the first, 1.2 nM for the second.

Compared with YLRGHTESI, YLRLYIILA is 40-fold higher in IC50: 0.21 nM for the first, 8.3 nM for the second.

YLYNKYSFKL and YLYTEYFLFL are within 1.5-fold of each other in IC50: 0.11 nM for the first, 0.085 nM for the second.

Going from YMSNLFDIPL to YMVTDKTAYI, the IC50 falls from 19 nM to 0.23 nM (83-fold).

First: YQSFLFWFL
Second: YTISSESLV
The IC50 of the first is 1400-fold lower: 0.38 nM for the first, 522 nM for the second.

Compared with YTVEFDRDKV, YVGDTSMMVI is 4.9-fold higher in IC50: 83 nM for the first, 408 nM for the second.

First: YVHEGVSYEV
Second: YVILKDPRI
The IC50 of the first is 120-fold lower: 13 nM for the first, 1550 nM for the second. The first is the more potent here.

First: YVIPDELIDV
Second: YVSPTEMVDV
The IC50 of the first is 3.5-fold lower: 18 nM for the first, 63 nM for the second. The first is the more potent here.

Work on YVSVMNFIPI yielded an IC50 of 341 nM.

The sequences below were run against HLA-A*02:03 in the same assay as above. Settings: source organism: Hepacivirus hominis.

First: VLAGGVLAAV
Second: VLMTHFFSV
The IC50 of the first is 2.6-fold higher: 6.7 nM for the first, 2.6 nM for the second. The second is the more potent here.

First: VLMTHFFSVL
Second: VLMVDSFDPV
The IC50 of the first is 1.8-fold higher: 21 nM for the first, 12 nM for the second. The second is the more potent here.

First: VLVGGVLAAL
Second: YMLVLAEALI
The IC50 of the first is 46-fold lower: 5 nM for the first, 228 nM for the second.

Compared with YSMAGNWAKV, YTLLGCWSFV is 9.9-fold higher in IC50: 17 nM for the first, 169 nM for the second.

Same assay, conditions: source organism: Influenza A virus

First: VNNAVVMPA
Second: WISFAISCFL
The IC50 of the first is 2-fold higher: 712 nM for the first, 355 nM for the second. The second is the more potent here.

Compared with WSYNAELLVA, YNAELLVLL is 130-fold higher in IC50: 14 nM for the first, 1790 nM for the second.

Same assay, conditions: source organism: Mammarenavirus guanaritoense

YCNYTRFWYI was tested, and the IC50 was 4340 nM.

Same assay, conditions: source organism: Mammarenavirus whitewaterense

In the case of YCNYTKFWYV, the IC50 is reported as 102 nM.

Same assay, conditions: source organism: SARS-CoV1

Compared with VLWAHGFEL, VMCGGSLYV is 4.5-fold lower in IC50: 34 nM for the first, 7.5 nM for the second.

First: VMYASALVLL
Second: VVFLHVTYV
The IC50 of the first is 14-fold higher: 4 nM for the first, 0.28 nM for the second. The second is the more potent here.

Going from VVHGYFTEV to WLLWPVTLA, the IC50 falls from 3.3 nM to 1.2 nM (2.8-fold).

Compared with WLMWFIISIV, WLVIGVAFL is 5-fold lower in IC50: 4.7 nM for the first, 0.94 nM for the second.

First: YASALVLLI
Second: YIFFASFYYI
The IC50 of the first is 12-fold lower: 4.9 nM for the first, 60 nM for the second. The first is the more potent here.

Compared with YIWKSYVHI, YLMCLSPLM is 43-fold lower in IC50: 13 nM for the first, 0.3 nM for the second. The second is the more potent here.

Compared with YLMCLSPLMA, YLSSVLLAL is 2.4-fold higher in IC50: 0.13 nM for the first, 0.31 nM for the second. The first is the more potent here.

Going from YMLFTKFFYL to YQCGHYTHI, the IC50 falls from 46 nM to 15 nM (3.1-fold).

Same assay, conditions: source organism: Vaccinia virus WR

Going from VITYCLVTHM to VLALYSPPL, the IC50 falls from 582 nM to 0.41 nM (1400-fold). The second is the more potent here.

Going from VLIAGIILLI to VMYAFTTPL, the IC50 falls from 35 nM to 1.3 nM (27-fold). The second is the more potent here.
